5 molecules from patent US20170240596A1 (published 2017) can be followed below.

No end group written: not given here.

For test [1], the target named is C4-2 cells. In words: flow cytometry; C4-2 cells; apparent Kd. In general terms: Flow cytometry measures light scatter and fluorescence of single cells or particles in a stream.
Test [2] concerns the target C4-2. In words: flow cytometry; C4-2 cells; apparent Kd.
The target of test [3] is C4-2. Nature of the test: flow.
Test [4] has as its target C4-2 cells. In words: flow.

For SGYQTFYWPGPI (also: FAM label, position not given here) [Scrambled GTI], the Kd with C4-2 cells [1] was over 100 µM.

As to HSDNHYRPADKL (also: FAM label, position not given here) [HSD], the Kd with C4-2 [2] turned out to be 30.8 µM.

Regarding GTIQPYPFSWGY (also: FAM (fluorescein amidite) label, position not given here) [GTI], the Kd in the test with C4-2 [3] and with C4-2 cells [4] was 8.91 µM in each case.

In the case of YVNSHSILGYTG (also: FAM label, position not given here) [YVN], the Kd with C4-2 [2] was 9.79 µM.

As for TGHLYPTRMEIQ (also: FAM label, position not given here) [TGH], the Kd with C4-2 [2] came out at 44.1 µM.
